Numbering of substitutions follows the chain as printed.
B1: 4R34, human IgG1 (antibody, V domains shown)
VH: EVQLLESGGGLVQPGGSLRLSCAASGFTFSNYAMSWVRQAPGKGLEWVSAISSGGGNIYYADSVKGRFTISRDNSKNTLYLQMNSLRAEDTAVYYCARVHRAFDYWGQGTLVTVSS
VL: QSVLTQPPSASGTPGQRVTISCSGSSSNIGSNTFNWYQQLPGTAPKLLIYADSHRPSGVPDRFSGSKSGTSASLAISGLRSEDEADYYCGTWDYSLSGYVLGGGTKLTVL
B2: 4R34.2, human IgG1 (antibody, V domains shown)
VH: B1 VH with S52T, G54S, G56A
VL: B1 VL with S97R
B3: 4R34.1.21, human IgG1 (antibody, V domains shown)
VH: B1 VH with S52T, G54S, G56R, N57S
VL: B1 VL with S26A, S27A, N28L, I29D, G30L, N32P, T33S
B4: 4R34.1.18, human IgG1 (antibody, V domains shown)
VH: B1 VH with S52T, G54S, G56R, N57S
VL: B1 VL with S26L, S27L, N28R, I29G, G30E, S31N, N32L, T33Q, S97R
B5: 4R34.1.13, human IgG1 (antibody, V domains shown)
VH: B1 VH with S52T, G54S, G56R, N57S
VL: B1 VL with S26A, S27Q, N28F, I29G, G30S, S31R, N32D, T33N, S97R
B6: 4R34.1, human IgG1 (antibody, V domains shown)
VH: B1 VH with S52T, G54S, G56R, N57S
VL: B1 VL
B7: 4R34.1.11, human IgG1 (antibody, V domains shown)
VH: B1 VH with S52T, G54S, G56R, N57S
VL: B1 VL with S27A, I29S, G30R, S31T, N32D, T33G, S97R
B8: 4R34.19, human IgG1 (antibody, V domains shown)
VH: B1 VH with S52T, G54S
VL: B1 VL with T91Y
B9: 4R34.1.19, human IgG1 (antibody, V domains shown)
VH: B1 VH with N31R, Y32H, S35A, S52T, G54S, G56R, N57S
VL: B1 VL with S26P, S27L, N28F, I29P, G30D, N32G, T33S
B10: 4R34.1.17, human IgG1 (antibody, V domains shown)
VH: B1 VH with S52T, G54S, G56R, N57S
VL: B1 VL with S26T, S27K, N28Q, I29M, G30H, S31N, N32Y, T33Q
B11: 4R34.29, human IgG1 (antibody, V domains shown)
VH: B1 VH with S52T, S53A, N57S
VL: B1 VL

Key:
Dupilumab analogue = test: ELISA; conditions: dupilumab analogue 100 pM; read off a plot
[1] = target: T1, extracellular domain of human IL-4Rα (residues 26–232), C-terminal 6× His (human, UniProt P24394); test: BLI; OctetRED96; Ab (1 μg/mL) captured on anti-human IgG Fc capture (AHC) biosensors at low density (0.6 to 0.8 nm), soluble monomeric IL-4Rα as analyte; 25 °C, PBS pH 7.4, 0.02% Tween 20; association 300 s, dissociation 600-900 s; 1:1 binding model; conditions: both partners purified
T1 construct: human interleukin-4 receptor alpha subunit, extracellular domain, residues 26-232; Subcloned into the pSecTag2A vector; N-glycosylated (~45 kDa, ~26 kDa after PNGase F); also called wild-type IL-4Rα; soluble IL-4Rα; source: HEK293F, transiently transfected, purified (Ni-NTA); not shown: His6, C-terminal, kept

insulin = target: T2, insulin (Homo sapiens (assumed), UniProt P01308); test: ELISA; non-specificity ELISA: hemocyanin (150 ng/well) and insulin (150 ng/well) coated (also dsDNA and cardiolipin); conditions: both partners purified
T2 construct: insulin B chain; insulin A chain; Polyreactivity antigen; source: bought: Sigma, I9278
T2 sequence (P01308 whole entry, looked up): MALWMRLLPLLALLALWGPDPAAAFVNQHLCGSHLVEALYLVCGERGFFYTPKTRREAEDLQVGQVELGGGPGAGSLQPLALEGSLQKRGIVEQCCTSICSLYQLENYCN

T1 sequence (P24394 26-232): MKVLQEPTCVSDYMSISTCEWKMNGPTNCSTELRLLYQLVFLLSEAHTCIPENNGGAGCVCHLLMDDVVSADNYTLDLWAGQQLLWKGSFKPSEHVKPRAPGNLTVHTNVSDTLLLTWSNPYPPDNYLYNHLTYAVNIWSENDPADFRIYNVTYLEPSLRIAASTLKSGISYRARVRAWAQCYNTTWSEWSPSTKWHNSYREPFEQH

Molecule	percent of parent (Dupilumab analogue)	Kd [1]	koff [1]	kon [1]	binding result (insulin)
extracellular domain of human IL-4Rα (residues 26–232), C-terminal 6× His (from UniProt P24394) V93A	76%	–	–	–	–
extracellular domain of human IL-4Rα (residues 26–232), C-terminal 6× His (from UniProt P24394) Y208A	100%	–	–	–	–
extracellular domain of human IL-4Rα (residues 26–232), C-terminal 6× His (from UniProt P24394) Y38A	120%	–	–	–	–
extracellular domain of human IL-4Rα (residues 26–232), C-terminal 6× His (from UniProt P24394) D92A	100%	–	–	–	–
extracellular domain of human IL-4Rα (residues 26–232), C-terminal 6× His (from UniProt P24394) S95A	100%	–	–	–	–
extracellular domain of human IL-4Rα (residues 26–232), C-terminal 6× His (from UniProt P24394) D97A	73%	–	–	–	–
extracellular domain of human IL-4Rα (residues 26–232), C-terminal 6× His (from UniProt P24394) L68A	97%	–	–	–	–
extracellular domain of human IL-4Rα (residues 26–232), C-terminal 6× His (from UniProt P24394) L67A	100%	–	–	–	–
B1	–	1.04 nM	0.00361 s⁻¹	3.47e+06 M⁻¹ s⁻¹	–
B2	–	0.853 nM	0.00401 s⁻¹	4.7e+06 M⁻¹ s⁻¹	–
B3	–	0.228 nM	0.00106 s⁻¹	4.63e+06 M⁻¹ s⁻¹	–
B4	–	0.29 nM	0.00175 s⁻¹	6.05e+06 M⁻¹ s⁻¹	–
B5	–	0.208 nM	0.00107 s⁻¹	5.12e+06 M⁻¹ s⁻¹	–
B6	–	0.401 nM	0.00172 s⁻¹	4.28e+06 M⁻¹ s⁻¹	–
B7	–	0.21 nM	0.000968 s⁻¹	4.62e+06 M⁻¹ s⁻¹	–
B8	–	0.532 nM	0.00243 s⁻¹	4.58e+06 M⁻¹ s⁻¹	–
B9	–	0.178 nM	0.000877 s⁻¹	4.93e+06 M⁻¹ s⁻¹	no binding
B10	–	0.179 nM	0.000879 s⁻¹	4.92e+06 M⁻¹ s⁻¹	–
B11	–	0.716 nM	0.00371 s⁻¹	5.18e+06 M⁻¹ s⁻¹	–
